This is an account of results in patent US20160264664A1 (Ablynx, published 2016).

Assay [1] deals with T1, mouse P2X7 (mouse, UniProt Q9Z1M0 1-595).
T1 construct: on transfected CHO or Hek293 cells, or endogenous on Yac-1 cells; also called mP2X7; mouse purinoceptor P2X7
T1 sequence: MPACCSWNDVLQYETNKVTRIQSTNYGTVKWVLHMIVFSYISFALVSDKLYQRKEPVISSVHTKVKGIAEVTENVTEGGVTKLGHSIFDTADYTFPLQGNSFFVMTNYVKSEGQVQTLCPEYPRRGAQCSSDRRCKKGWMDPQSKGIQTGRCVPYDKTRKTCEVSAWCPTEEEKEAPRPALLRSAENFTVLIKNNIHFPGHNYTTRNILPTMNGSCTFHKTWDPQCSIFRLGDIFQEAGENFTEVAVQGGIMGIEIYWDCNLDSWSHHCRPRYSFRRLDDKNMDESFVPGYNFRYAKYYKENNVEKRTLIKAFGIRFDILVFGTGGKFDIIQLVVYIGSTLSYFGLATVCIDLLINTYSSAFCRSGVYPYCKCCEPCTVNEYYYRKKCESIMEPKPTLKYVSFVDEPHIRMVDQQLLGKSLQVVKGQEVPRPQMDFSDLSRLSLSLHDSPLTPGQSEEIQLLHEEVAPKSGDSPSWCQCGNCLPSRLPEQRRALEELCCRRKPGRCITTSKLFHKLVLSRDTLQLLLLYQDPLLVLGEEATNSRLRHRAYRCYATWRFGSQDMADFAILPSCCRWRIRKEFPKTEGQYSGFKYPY
The experiment in a line: phage ELISA on fixed mP2X7-CHO vs untransfected CHO cells (minimally 2-fold). In general terms: An ELISA detects its analyte on a solid surface through an enzyme-linked reagent.
Description: Sub-confluent cells were rinsed with PBS and fixed using 4% paraformaldehyde in PBS for 10 minutes at RT. Fixed cells were washed three times with PBS, and blocked with 2% BSA in PBS for 2 hours. Following blocking, 10-fold diluted culture supernatant containing phage was added and incubated for 1 hour. Cell-bound phage was detected via mouse anti-M13-HRP-conjugate (GE Healthcare, Cat nr. E2886). Rat mAb Hano43 was used as positive control.

The target of assay [2] is T1, mouse P2X7. As to the kind of experiment: Table A-1 'P2X7 function'; screening on mP2X7-expressing cells.

Numbering of substitutions follows the chain as printed.

B1: P2X7PMP6D7 (VHH)
VHH: EVQLVESGGGLVQAGGSLRLSCAASGRTFSSLAMGWLRQAPGKEREFVSGISRGGTSTYYADSVKGRLTISRDNAKNTMYLQMNSLKPEDTAVYYCAGSPVLSIVLDTRGLEYWGQGTQVTVSS
notes: family 7; on phage or c-myc/His6-tagged in assays
With B1, the binding result in assay [1] is “binds”.

B2: P2X7PMP15C7 (VHH)
VHH: EMQLVESGGGWVQAGGSLRLSCASSGSIFSAGAMGWYRQPAGKQRELVADITLGGSTNYADSVKGRFTISRDNAKNAVFLQMNSLKPEDTAVYYCNGLINTFARKIPRYAWGQGTQVTVSS
notes: family 28; on phage or c-myc/His6-tagged in assays
B2: the binding result in assay [2] is “binds”.

B3: P2X7PMP7E8 (VHH)
VHH: EVQLVESGGGLVQAGGSLRLSCAASGRTFSSSPVGWFRQAPGKERDFVATISWNGVDTHYLDSVKGRFTISRDNALNTVHLQMHILKPEDTALYYCAASTSGSAYLPYRVYQYDSWGQGTQVTVSS
notes: family 8; on phage or c-myc/His6-tagged in assays
In the case of B3, the binding result in assay [1] is given as “binds”.

B4: P2X7PMP7F5 (VHH)
VHH: B3 VHH with Y111H
notes: as for B3
Take B4: the binding result in assay [1] is “binds”.

B5: P2X7PMP16F5 (VHH)
VHH: EVQLVESGGGLVQAGGSLRLSCAASGPTTFGRYTMGWFRQAPGREREFVAAISWIGGRTYYVDVVKGRFTISRDNAKKMVYLQMNSLKPDDTAVYHCAAAFQALGSPREYDYWGQGTQVTVSS
notes: family 29; on phage or c-myc/His6-tagged in assays
Regarding B5, the binding result in assay [2] is “binds”.

B6: P2X7PMP13F4 (VHH)
VHH: EVQLVESGGGLVQSGGSLRLSCAGSGFSYYIIGWFRQAPGKEREEVSCIRVTDGSTYHTNSVKGRFTMSRDNAENTVYLQMNSLKPEDTAVYSCATECQRWAYPNRIGARGQGTQVTVSS
notes: family 12; on phage or c-myc/His6-tagged in assays
On to B6, for which the binding result in assay [1] is recorded as “binds”.

B7: P2X7PMP13E9 (VHH)
VHH: EVQLVESGGGLVQPGESLRLSCTASRFDLDYYDIAWFRQAPGKEREGVSCSFTNDGSTYYADSVKGRFTMSRNNDHRTVYLQMTSLQPEDTAVYTCAVGPLTRRRQCVPGDFSMDFWGEGTLVTVSS
notes: family 22; on phage or c-myc/His6-tagged in assays
Regarding B7, the binding result in assay [1] is “binds”.

B8: P2X7PMP19H4 (VHH)
VHH: EVQLVESGGGLVQAGGSLRLSCVASGRTLSTAVMGWFRQAPGKERGLVAMISWSGSMTYYAKSVKGRFTISRDNAKNTMYLQMNSLKPEDTAVYYCAADMGGGPPDGDAMPRLSSGMDYWGKGTLVTVSS
notes: family 26; on phage or c-myc/His6-tagged in assays
In the case of B8, the binding result in assay [2] is listed as “binds”.

B9: P2X7PMP4G4 (VHH)
VHH: EVQLMESGGGLVQAGGPLRLSCAASGRTVSDYGMGWFRQAPGKEREFVASINWSGTYTRYIDSVEGRFTISRDNTENTLYLQMNNLKAEDTAVYYCAYFLGPNWYSDYGRPSSYDFYGQGTQVTVSS
notes: family 4; on phage or c-myc/His6-tagged in assays
Take B9: the binding result in assay [1] is recorded as “binds”.

B10: P2X7PMP19A7 (VHH)
VHH: B9 VHH with E1K, M5V, P17S, E44L, T56I, E76K, K87R, D107N
notes: as for B9
With B10, the binding result in assay [1] is recorded as “binds”.

B11: P2X7PMP19D12 (VHH)
VHH: B9 VHH with M5V, P17S, E44L, T56I, E76K, D107N, D115G
notes: as for B9
Take B11: in assay [1], the binding result is listed as “binds”.

B12: P2X7PMP20B8 (VHH)
VHH: B9 VHH with M5V, P17S, R45C
notes: as for B9
Consider B12, for which, in assay [1], the binding result was “binds”.

B13: P2X7PMP16G3 (VHH)
VHH: EVQLVESGGGLVQAGGSLRLSCAASGNDFARFSIDAMGWYRQAPGKQRELVATVTEDGTKNYADSVKGRATISRDDANNSMYLEMNTLKPEDTAVYYCKMGGLIDGAAPYEFWGRGTQVTVSS
notes: family 27; on phage or c-myc/His6-tagged in assays
Consider B13, for which the binding result in assay [2] is given as “binds”.

B14: P2X7PMP18D12 (VHH)
VHH: EVQLVESGGDLVQAGGSLKLSCVVSGVTFDDGTIGWFRQAPGKEREGIACISRVDGTTYYRDSVKGRFTVSSDSAKTTVNLQMNSLKPEDTAVYYCAADYASLCTIETGYGSLYDYWGRGTQVTVSS
notes: family 6; on phage or c-myc/His6-tagged in assays
B14: the binding result in assay [2] is “binds”.

B15: P2X7PMP4B3 (VHH)
VHH: B14 VHH with R119K
notes: as for B14
Consider B15, for which the binding result in assay [2] was “binds”.
